In test [1] the target is T1, CD20 (UniProt P11836 1-297, limits assumed).
T1 sequence (looked up): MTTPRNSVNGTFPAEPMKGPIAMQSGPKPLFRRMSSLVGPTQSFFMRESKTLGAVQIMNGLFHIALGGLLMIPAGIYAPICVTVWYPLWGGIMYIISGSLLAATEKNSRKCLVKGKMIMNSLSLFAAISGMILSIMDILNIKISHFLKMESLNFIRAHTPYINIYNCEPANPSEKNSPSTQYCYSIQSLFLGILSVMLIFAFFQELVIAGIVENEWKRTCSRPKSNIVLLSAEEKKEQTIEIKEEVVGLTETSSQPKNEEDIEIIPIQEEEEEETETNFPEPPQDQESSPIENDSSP
The test can be described thus: cell-based or functional assay.

The target of test [2] is T2, CD19 (UniProt P15391 20-556, limits assumed).
T2 sequence (looked up): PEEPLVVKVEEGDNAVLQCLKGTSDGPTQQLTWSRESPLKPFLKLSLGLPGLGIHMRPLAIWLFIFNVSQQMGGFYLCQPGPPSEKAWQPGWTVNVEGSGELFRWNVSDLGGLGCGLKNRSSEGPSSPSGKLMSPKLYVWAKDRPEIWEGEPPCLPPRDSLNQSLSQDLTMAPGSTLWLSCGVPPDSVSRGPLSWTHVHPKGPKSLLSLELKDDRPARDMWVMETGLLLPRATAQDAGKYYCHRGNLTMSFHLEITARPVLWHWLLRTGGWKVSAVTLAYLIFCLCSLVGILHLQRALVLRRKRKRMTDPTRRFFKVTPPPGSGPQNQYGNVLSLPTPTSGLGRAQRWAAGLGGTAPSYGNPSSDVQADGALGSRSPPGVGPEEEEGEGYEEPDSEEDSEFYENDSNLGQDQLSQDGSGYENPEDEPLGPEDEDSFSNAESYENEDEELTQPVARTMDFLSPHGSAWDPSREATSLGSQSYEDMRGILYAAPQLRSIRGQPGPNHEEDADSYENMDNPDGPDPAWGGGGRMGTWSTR
As to the kind of experiment: cell-based or functional assay.

In test [3] the target is T2, CD19. The test can be described thus: cellular binding assay, flow cytometry (gMFI) on OCI-AML3-CD19 cells.
Test [4] has as its target T1, CD20. The test can be described thus: cellular binding assay, flow cytometry (gMFI) on OCI-AML3-CD20 cells.

B1: R-TM-19/20_21 (other)
chain 1: not shown
chain 2: GQVQLVQSGAEVKKPGASVKVSCKASGYTFTHYYIYWVRQAPGQGLEWMGGVNPSNGGTHFNEKFKSRVTMTRDTSISTAYMELSRLRSDDTAVYYCARSEYDYGLGFAYWGQGTLVTVSSASTKGPSVFPLAPSSKSTSGGTAALGCLVKDYFPEPVTVSWNSGALTSGVHTFPAVLQSSGLYSLSSVVTVPSSSLGTQTYICNVNHKPSNTKVDKKVEPKSCDKTHTCPPCPAPPVAGPSVFLFPPKPKDTLMISRTPEVTCVVVDVSHEDPEVKFNWYVDGVEVHNAKTKPREEQYNSTYRVVSVLTVLHQDWLNGKEYKCKVSNKGLPSSIEKTISKAKGQPREPQVYTLPPSRDELTKNQVSLWCLVKGFYPSDIAVEWESNGQPENNYKTTPPVLDSDGSFFLYSKLTVDKSRWQQGNVFSCSVMHEALHNHYTQKSLSLSPGK
chain 3: GQVQLVESGGGLVQPGGSLRLSCAASGRTFSNYNMGWFRQAPGQGLEFVAAIDWSGGSPYYADSVKGRFTISRDNSKNTLYLQMNSLRAEDTAVYYCAAPLSYGSTWLADYWGQGTLVTVSSEPKSCDKTHTCPPCPAPPVAGPSVFLFPPKPKDTLMISRTPEVTCVVVDVSHEDPEVKFNWYVDGVEVHNAKTKPREEQYNSTYRVVSVLTVLHQDWLNGKEYKCKVSNKGLPSSIEKTISKAKGQPREPQVYTLPPSRDELTKNQVSLSCAVKGFYPSDIAVEWESNGQPENNYKTTPPVLDSDGSFFLVSKLTVDKSRWQQGNVFSCSVMHEALHNHYTQKSLSLSPGK
notes: Three-chain CD19/CD20 targeting module
As for B1, the “CD20 killing EC50 [pM]” value with CD20 [1] is 12.6 pM. Further, the “CD19 killing EC50 [pM]” value in the test with CD19 [2] amounted to 1.4 pM. For the same molecule, the EC50 with CD19 [3] amounted to 2.2 nM; with CD20 [4] it was 53.8 nM.

B2: R-TM-19/20_5 (other)
chain 1: not shown
chain 2: GQVQLVQSGAEVKKPGASVKVSCKASGYTFTHYYIYWVRQAPGQGLEWMGGVNPSNGGTHFNEKFKSRVTMTRDTSISTAYMELSRLRSDDTAVYYCARSEYDYGLGFAYWGQGTLVTVSSASTKGPSVFPLAPSSKSTSGGTAALGCLVKDYFPEPVTVSWNSGALTSGVHTFPAVLQSSGLYSLSSVVTVPSSSLGTQTYICNVNHKPSNTKVDKKVEPKSCDKTHTCPPCPAPPVAGPSVFLFPPKPKDTLMISRTPEVTCVVVDVSHEDPEVKFNWYVDGVEVHNAKTKPREEQYNSTYRVVSVLTVLHQDWLNGKEYKCKVSNKGLPSSIEKTISKAKGQPREPQVYTLPPSRDELTKNQVSLWCLVKGFYPSDIAVEWESNGQPENNYKTTPPVLDSDGSFFLYSKLTVDKSRWQQGNVFSCSVMHEALHNHYTQKSLSLSPGK
chain 3: GQVQLVESGGGLVQPGGSLRLSCAASGRTFSNYNMGWFRQAPGQGLEFVAAIDWSGGSPYYADSVKGRFTISRDNSKNTLYLQMNSLRAEDTAVYYCAAPLSYGSTWLADYWGQGTLVTVSSGGGGSGGGGSQVQLVESGGGLVQPGGSLRLSCAASGRTFSNYNMGWFRQAPGQGLEFVAAIDWSGGSPYYADSVKGRFTISRDNSKNTLYLQMNSLRAEDTAVYYCAAPLSYGSTWLADYWGQGTLVTVSSEPKSCDKTHTCPPCPAPPVAGPSVFLFPPKPKDTLMISRTPEVTCVVVDVSHEDPEVKFNWYVDGVEVHNAKTKPREEQYNSTYRVVSVLTVLHQDWLNGKEYKCKVSNKGLPSSIEKTISKAKGQPREPQVYTLPPSRDELTKNQVSLSCAVKGFYPSDIAVEWESNGQPENNYKTTPPVLDSDGSFFLVSKLTVDKSRWQQGNVFSCSVMHEALHNHYTQKSLSLSPGK
notes: Three-chain CD19/CD20 targeting module; also called R-TM 19/20_05
For B2, the “CD20 killing EC50 [pM]” value with CD20 [1] came out at 9.8 pM. Also, the “CD19 killing EC50 [pM]” value in the test with CD19 [2] turned out to be 6.2 pM. In addition, the values for the EC50 in the test with CD19 [3] and in the test with CD20 [4] were 14.7 nM and 24.1 nM, respectively.

B3: R-TM-19/20_23 (other)
chain 1: not shown
chain 2: GQVQLVQSGAEVKKPGASVKVSCKASGYTFTHYYIYWVRQAPGQGLEWMGGVNPSNGGTHFNEKFKSRVTMTRDTSISTAYMELSRLRSDDTAVYYCARSEYDYGLGFAYWGQGTLVTVSSASTKGPSVFPLAPSSKSTSGGTAALGCLVKDYFPEPVTVSWNSGALTSGVHTFPAVLQSSGLYSLSSVVTVPSSSLGTQTYICNVNHKPSNTKVDKKVEPKSCDKTHTCPPCPAPPVAGPSVFLFPPKPKDTLMISRTPEVTCVVVDVSHEDPEVKFNWYVDGVEVHNAKTKPREEQYNSTYRVVSVLTVLHQDWLNGKEYKCKVSNKGLPSSIEKTISKAKGQPREPQVYTLPPSRDELTKNQVSLWCLVKGFYPSDIAVEWESNGQPENNYKTTPPVLDSDGSFFLYSKLTVDKSRWQQGNVFSCSVMHEALHNHYTQKSLSLSPGK
chain 3: GQVQLVESGGGLVQPGGSLRLSCAASGRTFSNYNMGWFRQAPGQGLEFVAAIDWSGGSPYYAASVRGRFTISRDNSKNTLYLQMNSLRAEDTAVYYCAAPLSYGSTWLADYWGQGTLVTVSSEPKSCDKTHTCPPCPAPPVAGPSVFLFPPKPKDTLMISRTPEVTCVVVDVSHEDPEVKFNWYVDGVEVHNAKTKPREEQYNSTYRVVSVLTVLHQDWLNGKEYKCKVSNKGLPSSIEKTISKAKGQPREPQVYTLPPSRDELTKNQVSLSCAVKGFYPSDIAVEWESNGQPENNYKTTPPVLDSDGSFFLVSKLTVDKSRWQQGNVFSCSVMHEALHNHYTQKSLSLSPGK
notes: as for B1
Consider B3, for which, in the test with CD20 [1], the “CD20 killing EC50 [pM]” value is 2.1 pM. In addition, the “CD19 killing EC50 [pM]” value in the test with CD19 [2] came to 1 pM. Also, the EC50 with CD19 [3] amounted to 3.4 nM; with CD20 [4], 23 nM.

A word on the EC50: it is the concentration needed to bring the measured effect to its halfway point. Higher therefore signals a need for much substance.
